US20260049134A1 (UNIVERSITY OF FLORIDA RESEARCH FOUNDATION, published 2026)

T1: GARS-His (Sino Biological) (human, UniProt P41250 37-739, limits assumed)
T1 construct: Bought; also called GARS1; glycyl-tRNA synthetase; not shown: His tag of the bought protein
T1 sequence: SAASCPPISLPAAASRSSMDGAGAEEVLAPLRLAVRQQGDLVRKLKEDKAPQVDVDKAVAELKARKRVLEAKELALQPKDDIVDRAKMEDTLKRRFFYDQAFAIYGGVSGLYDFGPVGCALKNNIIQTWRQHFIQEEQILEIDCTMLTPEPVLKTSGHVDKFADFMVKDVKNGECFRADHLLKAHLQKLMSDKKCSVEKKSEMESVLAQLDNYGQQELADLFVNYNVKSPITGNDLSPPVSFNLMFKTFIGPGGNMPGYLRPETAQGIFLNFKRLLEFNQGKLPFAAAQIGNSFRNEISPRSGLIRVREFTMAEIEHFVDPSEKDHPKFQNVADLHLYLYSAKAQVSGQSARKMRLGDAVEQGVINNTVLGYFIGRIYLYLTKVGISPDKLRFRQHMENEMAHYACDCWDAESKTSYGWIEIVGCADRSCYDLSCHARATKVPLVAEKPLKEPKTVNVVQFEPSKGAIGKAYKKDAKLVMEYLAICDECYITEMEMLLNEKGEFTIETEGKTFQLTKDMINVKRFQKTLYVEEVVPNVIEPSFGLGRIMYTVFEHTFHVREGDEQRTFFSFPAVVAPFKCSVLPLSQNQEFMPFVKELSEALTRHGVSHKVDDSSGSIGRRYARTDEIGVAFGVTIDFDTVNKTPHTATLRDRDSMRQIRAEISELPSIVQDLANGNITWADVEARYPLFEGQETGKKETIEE

T2: IL13RA1
T2 construct: coated protein in the ELISA; also called IL13RA1-Fc-His (R&D Systems)
T2 chain: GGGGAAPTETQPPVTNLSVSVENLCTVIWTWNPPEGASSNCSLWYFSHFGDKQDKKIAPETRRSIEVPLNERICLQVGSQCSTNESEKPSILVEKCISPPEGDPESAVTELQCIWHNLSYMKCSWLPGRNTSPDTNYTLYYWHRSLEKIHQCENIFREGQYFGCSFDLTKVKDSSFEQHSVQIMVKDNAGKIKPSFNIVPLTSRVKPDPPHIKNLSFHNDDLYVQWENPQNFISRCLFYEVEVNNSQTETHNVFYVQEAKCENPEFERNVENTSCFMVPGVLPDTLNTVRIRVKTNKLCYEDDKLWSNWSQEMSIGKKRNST


How the values were obtained:
[1] = target: T1, GARS-His (Sino Biological); test: ELISA on coated protein
Description: (§1) Recombinant purified ECDs (50-150 ng) of each putative target protein were coated, incubated with 150 ng of the indicated primary antibody, and binding was detected using a peroxidase-conjugated anti-human Fab secondary antibody. Heatmap represents averages of technical triplicates. (8B) Target validation via siRNA knockdown. H929 cells were transfected with siRNA pools targeting the putative antibody targets ICAM1, CADM1, and PTPRG. Cells were then subjected to cognate IgG binding analysis via flow cytometry. (NT, non-targeting siRNA).
(§2) ELISA ELISA was conducted as described previously. Briefly, 50-150 ng of antigen was coated overnight in half-area 96-well plates at 4° C., blocked with 3% BSA at 37° C. for 1 h, and 150 ng of chimeric rabbit/human IgG1 was added, incubating for 2 h at 37° C. […] After incubating at 37° C. for 15 min-1 h (depending on intensity of controls), data were acquired using a SpectraMax M5 plate reader (Molecular Devices).

IL13RA1 = target: T2, IL13RA1; test: ELISA on coated IL13RA1-Fc-His
Description: as §1, §2

[2] = target: T3, PTPRG, endogenous in H929 multiple myeloma cells (human, UniProt P23470 20-1445); test: flow cytometry, H929 + vehicle; None 2.74
T3 construct: Native protein on H929 cells (flow cytometry, siRNA knockdown) and in H929 lysates (IP/MS); also called phosphatase receptor type γ
T3 sequence (P23470 20-1445 limits assumed): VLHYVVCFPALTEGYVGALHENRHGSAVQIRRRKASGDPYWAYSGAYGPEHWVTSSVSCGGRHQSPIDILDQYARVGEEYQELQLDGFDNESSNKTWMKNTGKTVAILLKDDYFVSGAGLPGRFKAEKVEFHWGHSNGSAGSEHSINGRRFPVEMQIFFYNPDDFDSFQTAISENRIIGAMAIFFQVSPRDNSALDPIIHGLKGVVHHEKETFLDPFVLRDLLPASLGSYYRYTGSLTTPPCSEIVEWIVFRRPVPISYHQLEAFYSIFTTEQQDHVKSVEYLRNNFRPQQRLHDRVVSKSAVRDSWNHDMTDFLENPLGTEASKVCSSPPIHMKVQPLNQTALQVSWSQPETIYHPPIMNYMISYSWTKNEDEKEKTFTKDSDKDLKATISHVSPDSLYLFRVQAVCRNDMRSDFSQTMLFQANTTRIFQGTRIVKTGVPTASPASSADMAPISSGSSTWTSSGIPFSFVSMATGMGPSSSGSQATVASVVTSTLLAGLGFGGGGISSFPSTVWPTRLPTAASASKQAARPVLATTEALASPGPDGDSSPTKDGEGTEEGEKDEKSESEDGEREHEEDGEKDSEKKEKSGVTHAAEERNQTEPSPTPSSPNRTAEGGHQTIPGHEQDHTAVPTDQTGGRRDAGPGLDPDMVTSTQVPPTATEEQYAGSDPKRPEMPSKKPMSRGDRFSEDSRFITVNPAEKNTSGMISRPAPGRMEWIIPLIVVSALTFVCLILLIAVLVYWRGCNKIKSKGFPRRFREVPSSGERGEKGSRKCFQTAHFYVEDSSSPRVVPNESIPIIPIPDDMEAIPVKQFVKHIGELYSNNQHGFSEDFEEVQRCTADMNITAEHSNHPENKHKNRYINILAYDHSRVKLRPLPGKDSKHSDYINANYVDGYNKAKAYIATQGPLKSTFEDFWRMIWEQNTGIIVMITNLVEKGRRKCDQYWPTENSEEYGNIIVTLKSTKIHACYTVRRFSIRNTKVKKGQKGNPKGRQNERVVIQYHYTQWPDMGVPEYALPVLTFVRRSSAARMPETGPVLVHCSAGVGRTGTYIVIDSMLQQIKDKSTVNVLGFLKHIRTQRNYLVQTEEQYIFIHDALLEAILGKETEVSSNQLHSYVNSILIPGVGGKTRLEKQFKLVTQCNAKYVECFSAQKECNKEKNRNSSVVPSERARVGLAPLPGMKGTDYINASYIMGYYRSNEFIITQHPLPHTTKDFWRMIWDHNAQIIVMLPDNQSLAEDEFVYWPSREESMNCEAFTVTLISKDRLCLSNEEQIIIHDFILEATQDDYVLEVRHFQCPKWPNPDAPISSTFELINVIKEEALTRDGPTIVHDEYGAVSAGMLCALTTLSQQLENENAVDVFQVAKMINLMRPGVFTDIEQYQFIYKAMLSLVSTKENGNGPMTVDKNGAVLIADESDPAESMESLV

[3] = target: T3, PTPRG, endogenous in H929 multiple …; test: flow cytometry, H929 + NT Green siRNA; None 416

Row | Cells stained (%) [2] [%] | mAb binding (MFI) [3] | Binder | binding result [1] | binding result (IL13RA1)
1 |  |  | TH9-0022 (antibody, human IgG1, kappa, L234A L235A, V domains shown, also called TH9-022; negative control IgG1) VH: QSLEESGGRLVTPGTPLTLTCTVSGFSLSSYAMNWVRQAPGKGLEWIGIINSYGSTYYASWAKGRFTISKTSTTVDLKITSPTTEDTATYFCARVTYDSYGYGYAPYGMDLWGPGTLVTVSS VL: LVMTQTPSSTSNAVGGTVTIKCQASQSIGNVLAWYQQKPGQPPKLLIYAASTLASGVPSRVGGSRSGTEYTLTISGVQREDAATYYCLGSDSDSDIAFGGGTELEILR | no binding (tested: 150 ng IgG1 per well) | 
2 | 99.4 | 16000 | HW-1 chimeric rabbit-human IgG1 LA/LA/PG (antibody, V domains shown, Fc-silenced (L234A/L235A/P329G) IgG1, lambda; Alexa Fluor 647-labeled in single-step flow cytometry; Prototype of cluster C-1) VH: QSLEESGGGLFKPTDTLTLTCTASGFSLGSSYAISWVRQAPGKELEWIGTIDSGRAYYARWAKSRSTITRNTNENTVTLKMTSLTAADTATYFCARDLIPTYSQDIWGPGTLVTISS VL: SFVLTQPASVQVNLGQTVSLTCTADTLSRRYASWYQQKPGQAPVLLIYRDTSRPSGVPDRFSGSSSGNTATLTISGAQAGDEADYYCATSDGSGNSYQYVFGGGTQLTVTS | no binding (tested: 150 ng IgG1 per well) | no binding (tested: 150 ng IgG1 per well)
3 |  |  | HW-113 chimeric rabbit-human IgG1 LA/LA/PG (antibody, V domains shown, Fc-silenced (L234A/L235A/P329G) IgG1, lambda; Alexa Fluor 647-labeled in single-step flow cytometry) VH: QKQLVESGGGLVQPGGSLTLTCTVSGFSLNKYYMGWFRQAPGKGLEWIGVISRSGDTYYSSWAKGRFTISKASTTVDLRITSPTTEDTATYFCARDASSPGFHGDRLDLWGQGTLVTVSS VL: SFVLTQPASVQVNLGQTVSLTCTADTLSRSYASWYQQKPGQAPVLLIYRDTSRPSGVPDRFSGSSSGNTATLTISGAQAGDEADYYCATSDGIGSNYLWVFGGGTQLTVTG | no binding (tested: 150 ng IgG1 per well) | no binding (tested: 150 ng IgG1 per well)
4 | 99.3 | 18600 | HW-17 chimeric rabbit-human IgG1 LA/LA/PG (antibody, V domains shown, Fc-silenced (L234A/L235A/P329G) IgG1, lambda; Alexa Fluor 647-labeled in single-step flow cytometry; Cluster C-1) VH: QSLGESRGRLVTPDETLTLTCTVSGIDLSSNAMSWVRQAPGEGLEWIGTINTGGRAYYASWAKGRFTISRTSTTVDLKMTSLTTEDTATYFCARERYSDGRAYDIWGPGTLVTISS VL: SFVLTQPASVQVNLGQTVSLTCTADTLSRRYASWYQQKPGQAPVLLIYTDSNRPSGIPDRFSGSSSGNTATLTISGAQAGDEADYYCATDDGSGSIYQYVFGGGTQLTVTG | no binding (tested: 150 ng IgG1 per well) | no binding (tested: 150 ng IgG1 per well)
5 |  |  | HW-97 chimeric rabbit-human IgG1 LA/LA/PG (antibody, V domains shown, Fc-silenced (L234A/L235A/P329G) IgG1, lambda; Alexa Fluor 647-labeled in single-step flow cytometry; Prototype of cluster C-97) VH: QKQLVESGGRLVTPGTPLTLTCTVTGIDLSSHGMSWVRQAPGKGLEWIGVIYPSGSTWYASWARGRFTISKTSTTVDLKMTSLTTEDTATHFCARGDVGGADNNIWGPGTLVTVSS VL: SFVLTQPASVQVDLGQTVSLTCTAETLSRSYASWYQQKPGQAPVLLIYRDTSRPSGVPDRFSGSSSGNTATLTISGAQAGDEADYYCATSDGSGSSYQYVFGGGTQLTVTG | no binding (tested: 150 ng IgG1 per well) | no binding (tested: 150 ng IgG1 per well)
6 |  |  | HW-101 chimeric rabbit-human IgG1 LA/LA/PG (antibody, V domains shown, Fc-silenced (L234A/L235A/P329G) IgG1, lambda; Alexa Fluor 647-labeled in single-step flow cytometry; Cluster C-97) VH: QEQLVESGGRLVTPGTPLTLTCKASGFSLGKYDMSWVRQAPGKGLEWIGTIYAGSGSTWYASWAKGRFTISKTSTTVDLKMTSLTTEDTATYFCARDFLGVNSIWGPGTLVTISS VL: SFVLTQPASVQVNLGQTVSLTCTADTLSRSYASWYQQKPDQAPVLLIHRDTSRPSGVPDRFSGSNSGNTATLTISGAQAGDEADYYCATSDGSGSNFHFVFGGGTQLTVTG | no binding (tested: 150 ng IgG1 per well) | no binding (tested: 150 ng IgG1 per well)
